In PMC4512722:

Experiments:
[1] = target: tomato pectin methylesterase PME1 (tomato) (UniProt P14280)
[2] = target: tomato pectin methylesterase PME1 (tomato) (UniProt P14280); assay: SPR; tomato PME1 immobilised by amine coupling on a COOH5 chip (SensiQ Pioneer), VvPMEI1 injected at 2.3-300 nM, 25°C, 10 mM NaOAc pH 5.5, 0.1 M NaCl, 0.005% Tween-20; 1:1 interaction model
[3] = target: tomato pectin methylesterase PME1 (tomato) (UniProt P14280); assay: SPR; tomato PME1 immobilised by amine coupling on a COOH5 chip (SensiQ Pioneer), VvPMEI1 injected at 2.3-300 nM, 25°C, 10 mM HEPES pH 7.5, 0.1 M NaCl, 0.005% Tween-20; 1:1 interaction model

Chain of UniProt P14280 (P14280 230-546): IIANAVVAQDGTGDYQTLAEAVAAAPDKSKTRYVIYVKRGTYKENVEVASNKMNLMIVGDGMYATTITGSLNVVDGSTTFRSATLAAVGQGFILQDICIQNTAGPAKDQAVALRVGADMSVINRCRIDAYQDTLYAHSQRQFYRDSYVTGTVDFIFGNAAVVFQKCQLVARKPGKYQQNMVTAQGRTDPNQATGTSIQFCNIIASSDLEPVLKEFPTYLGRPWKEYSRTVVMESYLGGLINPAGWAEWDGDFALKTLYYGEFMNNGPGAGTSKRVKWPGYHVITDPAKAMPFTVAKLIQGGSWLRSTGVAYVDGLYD

inhibitory activity (%) at pH 6.5, inhibition at pH 5.5 taken as 100% [1]: 100%
inhibitory activity (%) at pH 7.5, inhibition at pH 5.5 taken as 100% [1]: 84%
Kd [2]: 0.00477 µM
koff [2]: 0.00317 s⁻¹
Kd [3]: 0.035 µM
koff [3]: 0.026 s⁻¹
Substance: VvPMEI1, pectin methylesterase inhibitor of Vitis vinifera (recombinant) (natural protein)
